Measurements taken from the supplement of paper PMC11865577.

test system: G-clamp-N3 (biotin conjugate); assay: pull-down binding Z-score (relative to library population); higher = stronger binding; settings: RNA library: Library-1 (pre-miRNA loops + repeats)
Method in brief: (§1)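 Binding is given as a Z-score against the library mean and standard deviation, calculated after removing the beads-only signal and averaging barcoded replicate probes without their highest and lowest values. Cy5- or Cy3-end-labelled RNA library (1 μg) was heat-folded in phosphate/NaCl/KCl buffer and incubated 60 min at 25 °C with streptavidin beads bearing 100 pmol of biotin-conjugated small molecule. After three washes, RNA eluted in hot SDS was hybridised to a DNA barcode microarray for 20 h at 55.5 °C.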

| Sequence | pull-down binding Z-score |
| --- | --- |
| UGCUCAGUGGAGUUAUUUUGAGCA [hsa-mir-4495] | 1.2 |
| UGCUCCUUGAACAGGAGGAGCA [hsa-mir-4708] | 1.09 |
| UGCUCUGAUGAAGACCCAUGUGGC [hsa-mir-621] | -0.6 |
| UGCUCUGGUGACUGAGGACCGCCAGGCA [hsa-mir-4763] | -0.385 |
| UGCUGAUGUCAUCAGUCAUAACUUCUGCG [hsa-mir-6854] | -0.983 |
| UGCUGGAGAAGUGUUU [hsa-mir-557] | -0.431 |
| UGCUGGUGCUAGAGAGGAAAGCA [hsa-mir-4748] | 1 |
| UGCUGUGAGCUAGCCAGCAG [hsa-mir-5693] | -0.44 |
| UGCUGUGCUGUGCUGAGCAGGGCUGAGCUG [hsa-mir-4539] | 0.347 |
| UGCUGUUGCUGUGAAAGCUGA [hsa-mir-6823] | -0.619 |
| UGCUGUUGGAGACUCGAUUGUUGGUGACAGCGAAAGAACGAUAACAAA [hsa-mir-3655] | -1.76 |
| UGCUUCAGUUUCACUCCAAGCA [hsa-mir-4771-2_4771-1] | -0.932 |
| UGCUUCCACAUAGCAGCA [hsa-mir-4752] | -0.248 |
| UGCUUGACCUGAAUGCUACAAGGCA [hsa-mir-103b-2] | -1.12 |
| UGCUUGAUCCAUAUGCAACAAGGCA [hsa-mir-103b-1] | -0.604 |
| UGCUUUACUUUUAAUGGCA [hsa-mir-548k] | -0.352 |
| UGCUUUGUUAGAAACAAAAAGCA [hsa-mir-4679-1] | 0.865 |
| UGCUUUUUGUUUCUAACAAAGCA [hsa-mir-4679-2] | -0.591 |
| UGGAAGCUCCAGGUGCCAACCACCUGCCUCUA [hsa-mir-6731] | -0.826 |
| UGGAAGGAAUGGGAUCUACUUCCA [hsa-mir-3612] | 0.981 |
| UGGACAGAAAUUUCCUUUUGAGGAAAUCUUUCCC [hsa-mir-4308] | -0.543 |
| UGGACCUCAGGGAAGAGGCUG [hsa-mir-4673] | 0.343 |
| UGGACUGUGUACCAAUUUCCA [hsa-mir-194-1] | 0.055 |
| UGGAGCCAGGGGGCCCAGGUCUACAGCUUCUCCCCGCUCCC [hsa-mir-6752] | -0.438 |
| UGGAGCUAGACCACAUGGGUUCA [hsa-mir-5100] | -0.932 |

| Sequence | pull-down binding Z-score |
| --- | --- |
| UGGAGGAGUCUGGUGGCCUGUUCUCUU [hsa-mir-6754] | -0.0952 |
| UGGAGGCUGACCUCUUACUUUCGGUCGGUCUUCUU [hsa-mir-4258] | -1.13 |
| UGGAGGCUGCAGUGAGCCGAGAUCGAGCCACUGUACUCCA [hsa-mir-1273e] | 0.0244 |
| UGGAGGGGGUUUGUUUGCUUAUUCCCCUCU [hsa-mir-6737] | 0.456 |
| UGGAGGUGAUGGAUGUUUUCCUCCG [hsa-mir-671] | -0.238 |
| UGGAGGUGAUGGGGGCAGGGGAUGGGUCUCACCCUCCC [hsa-mir-5088] | 0.537 |
| UGGAGUCAGUAUUGGUCUGGCCA [hsa-mir-4255] | 0.114 |
| UGGAGUUUUUUUUUCCUCCUG [hsa-mir-4329] | -0.689 |
| UGGAUCACGCCGACAACACUGGUCU [hsa-mir-4635] | -0.474 |
| UGGAUUUGAAAUGGUCCCACUCCUGACGAUCCU [hsa-mir-6748] | -0.524 |
| UGGCAAAGACAUAGAUUGUUUAGCUACCCCUUUGCCA [hsa-mir-3119-2] | 0.167 |
| UGGCAAAGGGGUAGCUAAACAAUCUAUGUCUUUGCCA [hsa-mir-3119-1] | 1.24 |
| UGGCAAUUCAGUAAAAAUGCUCA [hsa-mir-6715b] | -0.751 |
| UGGCACAGAUCCAAUACCUUCUGUCCCC [hsa-mir-6810] | -0.424 |
| UGGCCAUUUCCUACCA [hsa-mir-617] | -1.33 |
| UGGCCUGGCAGUGCGUCGGAAGAACAGGGCGGGUGGGGCC [hsa-mir-4792] | 2.84 |
| UGGCGACACUCGCGCCAGCUCCCGGGACGGCUGGGCUCGGGCUGGUCGCCGA [hsa-mir-7845] | 3.14 |
| UGGCGGCGGCGAGGACACCGCCGCU [hsa-mir-4469] | 0.412 |
| UGGCUGCUUGGGUCAAGUCAGCAGCCA [hsa-mir-449b] | 1.35 |
| UGGCUGUAGGGCAGCAGUCA [hsa-mir-8079] | 0.959 |
| UGGCUUCUGCCUCUUUCUUUGUGGAAGCCA [hsa-mir-4269] | 1.04 |
| UGGCUUGCACCGUGACUCCCUCUCACCAAGCAAGUGUC [hsa-mir-4440] | -0.837 |
| UGGGAGGUAAGAGCUCUUCACCCUUCA [hsa-mir-197] | -0.817 |
| UGGGAGUGAUCCCAACAGCUGAGCUCCCU [hsa-mir-7106] | 0.114 |
| UGGGCAGUUCUUCUGCUGG [hsa-mir-1587] | 0.403 |

| Sequence | pull-down binding Z-score |
| --- | --- |
| UGGGCCAAG [hsa-mir-3620] | -0.636 |
| UGGGCUCCCCUAGACUAGGACUCCA [hsa-mir-1825] | 0.254 |
| UGGGUAGAAAGUAUUAUUCUAUUCA [hsa-mir-664b] | -0.0123 |
| UGGGUAGGAAUAUCCUGGAUCCCCU [hsa-mir-3189] | -0.575 |
| UGGGUCAAGGAGCCCA [hsa-mir-4530] | 0.476 |
| UGGGUGGAUCCUCUAUUUCCUUACGUGGGCCACUGG [hsa-mir-432] | 0.632 |
| UGGGUUAAGCCGAGCUGG [hsa-mir-4507] | 1.25 |
| UGGGUUGAACUGUGUGGACAAGCUCA [hsa-mir-181b-1] | -0.166 |
| UGGGUUGUGUCAGUGUCAGACCUC [hsa-mir-146a] | -0.421 |
| UGGGUUUGAGUCUGAAUCAACUCA [hsa-mir-181b-2] | -0.649 |
| UGGUAUCCUGACCG [hsa-mir-1973] | -0.747 |
| UGGUCAGAUAUCCCAU [hsa-mir-8060] | -1.4 |
| UGGUCAGGCGGCU [hsa-mir-3917] | 0.0721 |
| UGGUGCAAUAAUUGG [hsa-mir-1302-7] | 1.95 |
| UGGUGGAGAUGGAGAGCCCUGAGCCUCCA [hsa-mir-6777] | 0.173 |
| UGGUGGGAGAGGAGCCCCACUGUGGAAGUCUGACCCCCACA [hsa-mir-6785] | -0.814 |
| UGGUGGGGGCCGGGGCAGGCCCAGCGAAA [hsa-mir-648] | 1.1 |
| UGGUGGUGAAUUCAUGAGUCGCCA [hsa-mir-3115] | 0.372 |
| UGGUUACGUGUUUGAUGGUUAAUCA [hsa-mir-376a-2] | 1.55 |
| UGGUUAGCUUUUUUUUUUUUUUGAGAUGGAGUCUGGCUC [hsa-mir-8086] | -0.608 |
| UGGUUGAAUAUGUGAAUGGCAUCG [hsa-mir-449a] | 0.694 |
| UGGUUUCACUA [hsa-mir-3713] | -1.64 |
| UGGUUUGACACAGAGCUAAAUCA [hsa-mir-5007] | -0.866 |
| UGUAAAAUGUAAUAACAUUUCUUAUGUUUAAAACACUUUACA [hsa-mir-4801] | -0.257 |

test system: TO-3-N3 (biotin conjugate); assay: as above; settings: RNA library: Library-2
Method in brief: as §1

| Sequence | pull-down binding Z-score |
| --- | --- |
| UGCUCAGUGGAGUUAUUUUGAGCA [hsa-mir-4495] | -1.01 |
| UGCUCCUUGAACAGGAGGAGCA [hsa-mir-4708] | -0.48 |
| UGCUCUGAUGAAGACCCAUGUGGC [hsa-mir-621] | -0.162 |
| UGCUCUGGUGACUGAGGACCGCCAGGCA [hsa-mir-4763] | -0.245 |
| UGCUGAUGUCAUCAGUCAUAACUUCUGCG [hsa-mir-6854] | -0.119 |
| UGCUGGAGAAGUGUUU [hsa-mir-557] | 0.516 |
| UGCUGGUGCUAGAGAGGAAAGCA [hsa-mir-4748] | 0.426 |
| UGCUGUGAGCUAGCCAGCAG [hsa-mir-5693] | -0.0213 |
| UGCUGUGCUGUGCUGAGCAGGGCUGAGCUG [hsa-mir-4539] | 0.29 |
| UGCUGUUGCUGUGAAAGCUGA [hsa-mir-6823] | 0.045 |
| UGCUGUUGGAGACUCGAUUGUUGGUGACAGCGAAAGAACGAUAACAAA [hsa-mir-3655] | -0.405 |
| UGCUUCAGUUUCACUCCAAGCA [hsa-mir-4771-2_4771-1] | -0.0351 |
| UGCUUCCACAUAGCAGCA [hsa-mir-4752] | -0.423 |
| UGCUUGACCUGAAUGCUACAAGGCA [hsa-mir-103b-2] | -0.324 |
| UGCUUGAUCCAUAUGCAACAAGGCA [hsa-mir-103b-1] | 0.453 |
| UGCUUUACUUUUAAUGGCA [hsa-mir-548k] | -0.819 |
| UGCUUUGUUAGAAACAAAAAGCA [hsa-mir-4679-1] | 0.632 |
| UGCUUUUUGUUUCUAACAAAGCA [hsa-mir-4679-2] | 0.272 |
